Consider three molecules from paper PMC10374065 (PLOS Pathogens, 2023).

To fix the notation:
B1: purified recombinant T7-tagged vIRF-1 (natural protein)
chain: MDPGQRPNPFGAPGAIPKKPCLSQGSPGTSGSGAPCDEPSRSESPGEGPSGTGGSAAAGDITRQAVVAAITEWSRTRQLRISTGASEGKASIKDWIVCQVNSGKFPGVEWEDEERTRFRIPVTPLADPCFEWRRDGELGVVYIRERGNMPVDASFKGTRGRRRMLAALRRTRGLQEIGKGISQDGHHFLVFRVRKPEEEQCVECGVVAGAVHDFNNMARLLQEGFFSPGQCLPGEIVTPVPSCTTAEGQEAVIDWGRLFIRMYYNGEQVHELLTTSQSGCRISSALRRDPAVHYCAVGSPGQVWLPNVPNLACEIAKRELCDTLDACAKGILLTSSCNGIFCVCYHNGPVHFIGNTVPPDSGPLLLPQGKPTRIFNPNTFLVGLANSPLPAPSHVTCPLVKLWLGKPVAVGKLEPHAPSPRDFAARCSNFSDACVVLEIMPKPLWDAMQ
notes: source: purified recombinant protein; not shown: T7, C-terminal, kept

Some targets named below: GST-LC3B L22K (human, UniProt Q9GZQ8 1-120, L22K); GST-LC3B E41K (human, UniProt Q9GZQ8 1-120, E41K); GST-LC3B D19E (human, UniProt Q9GZQ8 1-120, D19E).
Test in all cases: pull-down
Settings in all cases: both partners purified

For a further assay, the target named is T1, GST-GABARAPL1 (human, UniProt Q9H0R8 1-117).
T1 construct: also called GABARAP-like 1; GL1

Assay [1] addresses T2, purified recombinant T7-tagged GABARAPL1 (human, UniProt Q9H0R8 1-117).
T2 construct: also called T7-GABARAPL1

For assay [2], the target named is B1.

T1 sequence (Q9H0R8 whole entry): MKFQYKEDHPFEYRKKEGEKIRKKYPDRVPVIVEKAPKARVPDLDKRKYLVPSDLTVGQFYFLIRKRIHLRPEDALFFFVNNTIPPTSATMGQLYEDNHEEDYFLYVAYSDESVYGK

Turning to B1, the binding result with GST-LC3B L22K, with GST-GABARAPL1, with GST-LC3B E41K and with GST-LC3B D19E was “binds” each time.

B2: GST-fused full-length (FL) vIRF-1 (natural protein)
chain: MDPGQRPNPFGAPGAIPKKPCLSQGSPGTSGSGAPCDEPSRSESPGEGPSGTGGSAAAGDITRQAVVAAITEWSRTRQLRISTGASEGKASIKDWIVCQVNSGKFPGVEWEDEERTRFRIPVTPLADPCFEWRRDGELGVVYIRERGNMPVDASFKGTRGRRRMLAALRRTRGLQEIGKGISQDGHHFLVFRVRKPEEEQCVECGVVAGAVHDFNNMARLLQEGFFSPGQCLPGEIVTPVPSCTTAEGQEAVIDWGRLFIRMYYNGEQVHELLTTSQSGCRISSALRRDPAVHYCAVGSPGQVWLPNVPNLACEIAKRELCDTLDACAKGILLTSSCNGIFCVCYHNGPVHFIGNTVPPDSGPLLLPQGKPTRIFNPNTFLVGLANSPLPAPSHVTCPLVKLWLGKPVAVGKLEPHAPSPRDFAARCSNFSDACVVLEIMPKPLWDAMQ
Turning to B2, the binding result in assay [1] is “binds”.

B3: GST-GABARAP (natural protein, human, UniProt O95166 1-117, looked up)
chain: MKFVYKEEHPFEKRRSEGEKIRKKYPDRVPVIVEKAPKARIGDLDKKKYLVPSDLTVGQFYFLIRKRIHLRAEDALFFFVNNVIPPTSATMGQLYQEHHEEDFFLYIAYSDESVYGL
notes: also called γ-amino-butyric acid receptor-associated protein
Consider B3, for which the binding result in assay [2] is on record as “binds”.
